Laboratory results published in the supplement of paper PMC5998384.

Legend:
HeLa Kyoto [1] = test: solubility in G1/S (NP-40 vs SDS abundance) (log2 ratio); higher = more soluble; conditions: cell cycle stage: G1/S
HeLa Kyoto [2] = test: solubility change mitosis vs G1/S (difference of NP-40 vs SDS log2 ratios) (log2 ratio difference); higher = more soluble in mitosis
HeLa Kyoto [3] = test: melting temperature (median over replicates), in situ; higher = more thermally stable
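Wherever melting temperature (median over replicates), in situ is given: HeLa Kyoto cells synchronized by double thymidine or nocodazole block, proteins quantified by TMT10plex mass spectrometry, three independent biological replicates.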
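Wherever solubility change mitosis vs G1/S (difference of NP-40 vs SDS log2 ratios) is given: synchronized HeLa Kyoto cells (double thymidine block for G1/S, nocodazole release for mitosis), protein amounts in NP-40 versus SDS lysates quantified by mass spectrometry, three biological replicates.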
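Wherever solubility in G1/S (NP-40 vs SDS abundance) is given: HeLa Kyoto cells arrested at G1/S by double thymidine block, proteins quantified by TMT10plex mass spectrometry in mild NP-40 versus SDS extracts, three biological replicates.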

Chain of IRF2BPL (chain, as listed by the source): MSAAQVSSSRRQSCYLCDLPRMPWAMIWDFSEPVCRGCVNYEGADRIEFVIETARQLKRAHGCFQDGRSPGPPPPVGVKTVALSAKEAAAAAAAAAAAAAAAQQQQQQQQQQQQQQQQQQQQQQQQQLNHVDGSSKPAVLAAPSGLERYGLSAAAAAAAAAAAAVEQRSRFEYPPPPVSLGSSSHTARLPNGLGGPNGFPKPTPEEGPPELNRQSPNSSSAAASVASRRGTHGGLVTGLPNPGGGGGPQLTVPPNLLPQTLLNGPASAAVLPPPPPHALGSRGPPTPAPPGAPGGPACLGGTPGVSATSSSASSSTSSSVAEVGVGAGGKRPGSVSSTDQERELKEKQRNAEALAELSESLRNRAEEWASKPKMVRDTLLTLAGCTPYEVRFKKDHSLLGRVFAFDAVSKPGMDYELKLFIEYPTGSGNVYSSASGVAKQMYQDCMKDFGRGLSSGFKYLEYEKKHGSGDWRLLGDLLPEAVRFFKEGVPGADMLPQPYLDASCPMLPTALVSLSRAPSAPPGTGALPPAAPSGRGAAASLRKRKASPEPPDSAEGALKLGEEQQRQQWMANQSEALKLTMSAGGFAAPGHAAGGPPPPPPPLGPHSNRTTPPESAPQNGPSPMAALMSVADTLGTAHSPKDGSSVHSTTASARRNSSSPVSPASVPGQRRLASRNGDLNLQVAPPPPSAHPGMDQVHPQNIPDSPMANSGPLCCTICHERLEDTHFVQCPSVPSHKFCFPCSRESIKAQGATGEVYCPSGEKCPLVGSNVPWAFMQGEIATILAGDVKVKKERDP

| Substance | solubility in G1/S (log2) (HeLa Kyoto [1]) | solubility change mitosis (log2) (HeLa Kyoto [2]) | melting temperature (HeLa Kyoto [3]; cell cycle stage: mitosis) | melting temperature (HeLa Kyoto [3]; cell cycle stage: G1/S) |
| --- | --- | --- | --- | --- |
| MKGLGDSRPRHLSDSLDPPHEPLFAGTDRNPYLLSPTEAFAREARFPGQNTLPGDGLFPLNNQLPPPSSTFPRIHYNSHFEVPEESPFPSHAQATKINRLPANLLDQFEKQLPIHRDGFSTLQFPRGEAKARGESPGRIRHLVHSVQRLFFTKAPSLEGTAGKVGGNGSKKGGMEDGKGRRAKSKERAKAGEPKRRSRSNISGWWSSDDNLDGEAGAFRSSGPASGLMTLGRQAERSQPRYFMHAYNTISGHMLKTTKNNTTELTAPPPPPAPPATCPSLGVGTDTNYVKRGSWSTLTLSHAHEVCQKTSATLDKSLLKSKSCHQGLAYHYLQVPGGGGEWSTTLLSPRETDAAAEGPIPCRRMRSGSYIKAMGDEDSDESGGSPKPSPKTAARRQSYLRATQQSLGEQSNPRRSLDRLDSVDMLLPSKCPSWEEDYTPVSDSLNDSSCISQIFGQASLIPQLFGHEQQVREAELSDQYEAACESACSEAESTAAETLDLPLPSYFRSRSHSYLRAIQAGCSQEEDSVSLQSLSPPPSTGSLSNSRTLPSSSCLVAYKKTPPPVPPRTTSKPFISVTVQSSTESAQDTYLDSQDHKSEVTSQSGLSNSSDSLDSSTRPPSVTRGGVAPAPEAPEPPPKHAALKSEQGTLTSSESHPEAAPKRKLSSIGIQVDCIQPVPKEEPSPATKFQSIGVQVEDDWRSSVPSHSMSSRRDTDSDTQDANDSSCKSSERSLPDCTPHPNSISIDAGPRQAPKIAQIKRNLSYGDNSDPALEASSLPPPDPWLETSSSSPAEPAQPGACRRDGYWFLKLLQAETERLEGWCCQMDKETKENNLSEEVLGKVLSAVGSAQLLMSQKFQQFRGLCEQNLNPDANPRPTAQDLAGFWDLLQLSIEDISMKFDELYHLKANSWQLVETPEKRKEEKKPPPPVPKKPAKSKPAVSRDKASDASDKQRQEARKRLLAAKRAASVRQNSATESADSIEIYVPEAQTRL [DLGAP4] | 0.269 | -0.0211 | 55.5 °C | – |
| MAAQPPRGIRLSALCPKFLHTNSTSHTWPFSAVAELIDNAYDPDVNAKQIWIDKTVINDHICLTFTDNGNGMTSDKLHKMLSFGFSDKVTMNGHVPVGLYGNGFKSGSMRLGKDAIVFTKNGESMSVGLLSQTYLEVIKAEHVVVPIVAFNKHRQMINLAESKASLAAILEHSLFSTEQKLLAELDAIIGKKGTRIIIWNLRSYKNATEFDFEKDKYDIRIPEDLDEITGKKGYKKQERMDQIAPESDYSLRAYCSILYLKPRMQIILRGQKVKTQLVSKSLAYIERDVYRPKFLSKTVRITFGFNCRNKDHYGIMMYHRNRLIKAYEKVGCQLRANNMGVGVVGIIECNFLKPTHNKQDFDYTNEYRLTITALGEKLNDYWNEMKVKKNTEYPLNLPVEDIQKRPDQTWVQCDACLKWRKLPDGMDQLPEKWYCSNNPDPQFRNCEVPEEPEDEDLVHPTYEKTYKKTNKEKFRIRQPEMIPRINAELLFRPTALSTPSFSSPKESVPRRHLSEGTNSYATRLLNNHQVPPQSEPESNSLKRRLSTRSSILNAKNRRLSSQFENSVYKGDDDDEDVIILEENSTPKPAVDHDIDMKSEQSHVEQGGVQVEFVGDSEPCGQTGSTSTSSSRCDQGNTAATQTEVPSLVVKKEETVEDEIDVRNDAVILPSCVEAEAKIHETQETTDKSADDAGCQLQELRNQLLLVTEEKENYKRQCHMFTDQIKVLQQRILEMNDKYVKKETCHQSTETDAVFLLESINGKSESPDHMVSQYQQALEEIERLKKQCSALQHVKAECSQCSNNESKSEMDEMAVQLDDVFRQLDKCSIERDQYKSEVELLEMEKSQIRSQCEELKTEVEQLKSTNQQTATDVSTSSNIEESVNHMDGESLKLRSLRVNVGQLLAMIVPDLDLQQVNYDVDVVDEILGQVVEQMSEISST [MORC3] | -0.0527 | -0.206 | 49.6 °C | 48.7 °C |
| MADSSPALSLREGGPRAPRPSAPSPPPRSRSGSESEEAELSLSLARTKTRSYGSTASVRAPLGAGVIERHVEHRVRAGDTLQGIALKYGVTMEQIKRANKLFTNDCIFLKKTLNIPVISEKPLLFNGLNSIDSPENETADNSFSQEEEPVVAGEDLPPPSPQESDVQPVQPEEVSARDFLQRLDLQIKLSTQAAKKLKEESRDEESPYATSLYHS [LYSMD2] | 0.0316 | -0.0367 | 51.8 °C | 52 °C |
| MAICQFFLQGRCRFGDRCWNEHPGARGAGGGRQQPQQQPSGNNRRGWNTTSQRYSNVIQPSSFSKSTPWGGSRDQEKPYFSSFDSGASTNRKEGFGLSENPFASLSPDEQKDEKKLLEGIVKDMEVWESSGQWMFSVYSPVKKKPNISGFTDISPEELRLEYHNFLTSNNLQSYLNSVQRLINQWRNRVNELKSLNISTKVALLSDVKDGVNQAAPAFGFGSSQAATFMSPGFPVNNSSSDNAQNFSFKTNSGFAAASSGSPAGFGSSPAFGAAASTSSGISTSAPAFGFGKPEVTSAASFSFKSPAASSFGSPGFSGLPASLATGPVRAPVAPAFGGGSSVAGFGSPGSHSHTAFSKPSSDTFGNSSISTSLSASSSIIATDNVLFTPRDKLTVEELEQFQSKKFTLGKIPLKPPPLELLNV [NUPL2] | -0.304 | 0.326 | 51.7 °C | – |
| IRF2BPL | 0.519 | -0.131 | 50.9 °C | 50 °C |
| MSDCYTELEKAVIVLVENFYKYVSKYSLVKNKISKSSFREMLQKELNHMLSDTGNRKAADKLIQNLDANHDGRISFDEYWTLIGGITGPIAKLIHEQEQQSSS [S100A16] | -0.172 | 0.301 | – | 51.3 °C |
| MLRREARLRREYLYRKAREEAQRSAQERKERLRRALEENRLIPTELRREALALQGSLEFDDAGGEGVTSHVDDEYRWAGVEDPKVMITTSRDPSSRLKMFAKELKLVFPGAQRMNRGRHEVGALVRACKANGVTDLLVVHEHRGTPVGLIVSHLPFGPTAYFTLCNVVMRHDIPDLGTMSEAKPHLITHGFSSRLGKRVSDILRYLFPVPKDDSHRVITFANQDDYISFRHHVYKKTDHRNVELTEVGPRFELKLYMIRLGTLEQEATADVEWRWHPYTNTARKRVFLSTE [IMP4] | -1.9 | 0.914 | 51.4 °C | – |
| MEDSGKTFSSEEEEANYWKDLAMTYKQRAENTQEELREFQEGSREYEAELETQLQQIETRNRDLLSENNRLRMELETIKEKFEVQHSEGYRQISALEDDLAQTKAIKDQLQKYIRELEQANDDLERAKRATIMSLEDFEQRLNQAIERNAFLESELDEKENLLESVQRLKDEARDLRQELAVQQKQEKPRTPMPSSVEAERTDTAVQATGSVPSTPIAHRGPSSSLNTPGSFRRGLDDSTGGTPLTPAARISALNIVGDLLRKVGALESKLASCRNLVYDQSPNRTGGPASGRSSKNRDGGERRPSSTSVPLGDKGLDTSCRWLSKSTTRSSSSC [NDE1] | 0.236 | 0.568 | 53.7 °C | 54.1 °C |
| MELFQAKDHYILQQGERALWCSRRDGGLQLRPATDLLLAWNPICLGLVEGVIGKIQLHSDLPWWLILIRQKALVGKLPGDHEVCKVTKIAVLSLSEMEPQDLELELCKKHHFGINKPEKIIPSPDDSKFLLKTFTHIKSNVSAPNKKKVKESKEKEKLERRLLEELLKMFMDSESFYYSLTYDLTNSVQRQSTGERDGRPLWQKVDDRFFWNKYMIQDLTEIGTPDVDFWIIPMIQGFVQIEELVVNYTESSDDEKSSPETPPQESTCVDDIHPRFLVALISRRSRHRAGMRYKRRGVDKNGNVANYVETEQLIHVHNHTLSFVQTRGSVPVFWSQVGYRYNPRPRLDRSEKETVAYFCAHFEEQLNIYKKQVIINLVDQAGREKIIGDAYLKQVLLFNNSHLTYVSFDFHEHCRGMKFENVQTLTDAIYDIILDMKWCWVDEAGVICKQEGIFRVNCMDCLDRTNVVQAAIARVVMEQQLKKLGVMPPEQPLPVKCNRIYQIMWANNGDSISRQYAGTAALKGDFTRTGERKLAGVMKDGVNSANRYYLNRFKDAYRQAVIDLMQGIPVTEDLYSIFTKEKEHEALHKENQRSHQELISQLLQSYMKLLLPDDEKFHGGWALIDCDPSLIDATHRDVDVLLLLSNSAYYVAYYDDEVDKVNQYQRLSLENLEKIEIGPEPTLFGKPKFSCMRLHYRYKEASGYFHTLRAVMRNPEEDGKDTLQCIAEMLQITKQAMGSDLPIIEKKLERKSSKPHEDIIGIRSQNQGSLAQGKNFLMSKFSSLNQKVKQTKSNVNIGNLRKLGNFTKPEMKVNFLKPNLKVNLWKSDSSLETMENTGVMDKVQAESDGDMSSDNDSYHSDEFLTNSKSDEDRQLANSLESVGPIDYVLPSCGIIASAPRLGSRSQSLSSTDSSVHAPSEITVAHGSGLGKGQESPLKKSPSAGDVHILTGFAKPMDIYCHRFVQDAQNKVTHLSETRSVSQQASQERNQMTNQVSNETQSESTEQTPSRPSQLDVSLSATGPQFLSVEPAHSVASQKTPTSASSMLELETGLHVTPSPSESSSSRAVSPFAKIRSSMVQVASITQAGLTHGINFAVSKVQKSPPEPEIINQVQQNELKKMFIQCQTRIIQI [INPP5F] | -0.015 | -0.171 | 49.3 °C | 51.3 °C |
